Patent US20070086998A1 (GPC BIOTECH, published 2007)
Positions count from the first letter of the chain named.

T1: HLA-DR on PRIESS cells (DRA*0101/DRB1*0401) (human, UniProt P01903 26-254; P01911 30-266)
T1 MHC II alpha: not shown
T1 MHC II beta: not shown

T2: human MHC class II DR protein (DRA*0101/DRB1*0401), purified (human, UniProt P01903 26-254; P01911 30-266, limits assumed)
T2 construct: mature; Detergent-solubilised protein purified from PRIESS cell lysate on an LB3.1 column; also called HLA-DR protein
T2 MHC II alpha: not shown
T2 MHC II beta: not shown

B1: MS-GPC-8-10-57 (IgG4 form) (antibody, V domains shown)
VH: QVELKESGPALVKPTQTLTLTCTFSGFSLSTSGVGVGWIRQPPGKALEWLALIDWDDDKYYSTSLKTRLTISKDTSKNQVVLTMTNMDPVDTATYYCARSPRYRGAFDYWGQGTLVTVSS
VL: DIVLTQPPSVSGAPGQRVTISCSGSESNIGNNYVQWYQQLPGTAPKLLIYDNNQRPSGVPDRFSGSKSGTSASLAITGLQSEDEADYYCQSYDLIRHVFGGGTKLTVLG
B2: MS-GPC-8-27-41 (IgG4 form) (antibody, V domains shown)
VH: B1 VH
VL: B1 VL with L94M, I95N, R96V
B3: MS-GPC-8-Fab (Fab, V domains shown)
VH: B1 VH with E3Q
VL: B1 VL with E26S, N31S, Q35S, L94M, I95P, R96Q, H97A
B4: MS-GPC-8-6-13 (IgG4 form) (antibody, V domains shown)
VH: B1 VH
VL: B1 VL with N31A, Q35T, L94Y, I95D, R96H, H97Y
B5: MS-GPC-1-Fab (Fab, V domains shown)
VH: B1 VH with E3Q, S100Q, P101Y, R102G, Y103H, A106G, Y109H
VL: B1 VL with E26S, N31S, Q35S, L94F, I95N, R96E, H97S
B6: MS-GPC-8-17 (Fab) (Fab, V domains shown)
VH: B1 VH with E3Q
VL: B1 VL with E26S, N31S, Q35S, L94F, I95S, R96V, H97Y
B7: MS-GPC-8-27-41 (Fab) (Fab, V domains shown)
VH: B1 VH with E3Q
VL: B1 VL with L94M, I95N, R96V
B8: MS-GPC-10-Fab (Fab, V domains shown)
VH: B1 VH with E3Q, S100Q, P101L, R102H, A106G, Y109L
VL: B1 VL with E26S, N31S, Q35S, I95T, R96M, H97G
B9: MS-GPC-8-6-2 (Fab) (Fab, V domains shown)
VH: B1 VH with E3Q
VL: B1 VL with N31S, Q35H, L94Y, I95D, R96H, H97Y
B10: MS-GPC-8-10-57 (Fab) (Fab, V domains shown)
VH: B1 VH with E3Q
VL: B1 VL
B11: MS-GPC-8-6-47 (Fab) (Fab, V domains shown)
VH: B1 VH with E3Q
VL: B1 VL with N31S, Q35S, L94Y, I95D, R96H, H97Y
B12: MS-GPC-8-6 (Fab) (Fab, V domains shown)
VH: B1 VH with E3Q
VL: B1 VL with E26S, N31S, Q35S, L94Y, I95D, R96H, H97Y
B13: MS-GPC-8-6-13 (Fab) (Fab, V domains shown)
VH: B1 VH with E3Q
VL: B1 VL with N31A, Q35T, L94Y, I95D, R96H, H97Y
B14: MS-GPC-8-6-19 (Fab) (Fab, V domains shown)
VH: B1 VH with E3Q
VL: B1 VL with N31S, Q35A, L94Y, I95D, R96H, H97Y
B15: MS-GPC-8-6-27 (Fab) (Fab, V domains shown)
VH: B1 VH with E3Q
VL: B1 VL with E26D, N31A, Q35T, L94Y, I95D, R96H, H97Y
B16: MS-GPC-8-27-7 (Fab) (Fab, V domains shown)
VH: B1 VH with E3Q
VL: B1 VL with Q35G, L94M, I95N, R96V
B17: MS-GPC-8-27-10 (Fab) (Fab, V domains shown)
VH: B1 VH with E3Q
VL: B1 VL with N31A, Q35N, L94M, I95N, R96V
B18: MS-GPC-8-6-2 (IgG form) (antibody, V domains shown)
VH: B1 VH
VL: B1 VL with N31S, Q35H, L94Y, I95D, R96H, H97Y
B19: MS-GPC-8-6 (IgG form) (antibody, V domains shown)
VH: B1 VH
VL: B1 VL with E26S, N31S, Q35S, L94Y, I95D, R96H, H97Y
B20: L243 (antibody, V domains shown)
VH: QIQLVQSGPELKKPGETVKISCKASGFTFTNYGMNWVKQAPGKGLKWMGWINTYTREPTYADDFKGRFAFSLETSASTAYLQINNLKNEDTAKYFCARDITAVVPTGFDYWGQGTTLTVSS
VL: DIQMTQSPASLSVSVGETVTITCRASENIYSNLAWYRQKQGKSPQLLVFAASNLADGVPSRFSGSGSGTQYSLKINSLQSEDFGDYYCQHFWTTPWAFGGGTNLEIK

Target: T3, chimeric DR-IE (human-mouse chimeric MHC class II molecule) (human; murine)
Assay: cell-based or functional assay

Binder	IC50 value for inhibition of T cell proliferation (lymph node cells of chimeric 0401-IE transgenic mice, ovalbumin) [nM]
B1	11
B2	20

Target: T1, HLA-DR on PRIESS cells …
Assay: cell-based or functional assay

Binder	maximum killing capacity against PRIESS cells, cross-linked bivalent fragment [%]
B3	84

Target: T1, HLA-DR on PRIESS cells …
Assay: cell-based or functional assay
Remark: another data set of the same source

Binder	% Killing by mAb; PRIESS (DR 4,4); 50 nM, 4 h [%]
B4	74
B1	93
B2	88

Target: HLA-DR on LG-2 cells (human)
Assay: cell-based or functional assay

Binder	% Killing by mAb; LG-2 (DR 1,1); 50 nM, 4 h [%]
B4	82
B1	88
B2	87

Target: T1, HLA-DR on PRIESS cells …
Assay: cell-based or functional assay
Remark: another data set of the same source

Binder	EC50 of cell killing for bivalent agent; PRIESS; Fab cross-linked with anti-FLAG M2 [nM]	EC50 of cell killing for bivalent agent; PRIESS; IgG4 [nM]
B5	54	
B1		1.1
B6	16	
B7	7.7	
B2		1.1
B3	31	
B8	33	
B9	8	

Target: HLA-DR on LG-2 cells (human)
Assay: cell-based or functional assay
Remark: another data set of the same source

Binder	EC50 of cell killing for bivalent agent; LG2; Fab cross-linked with anti-FLAG M2 [nM]	EC50 of cell killing for bivalent agent; LG2; IgG4 [nM]
B10	7.2	
B1		1
B7	7.2	
B2		1.23

Target: T3, chimeric DR-IE (human-mouse chimeric …)
Assay: cell-based or functional assay
Remark: another data set of the same source

Binder	IC50, IL-2 secretion of T-Hyb 1 cells stimulated by 0401-IE transgenic APC; Fab	Maximum inhibition(%), IL-2 secretion of T-Hyb 1 cells; Fab [%]	IC50, IL-2 secretion of T-Hyb 1 cells stimulated by 0401-IE transgenic APC; IgG [nM]	Maximum inhibition(%), IL-2 secretion of T-Hyb 1 cells; IgG [%]
B11	2.6 nM (Fab concentration/2)	100		
B12	20 nM (Fab concentration/2)	100		
B13	2.1 nM (Fab concentration/2)	100		
B4			0.42	100
B14	5.3 nM (Fab concentration/2)	100		
B15	3 nM (Fab concentration/2)	100		
B10	2.9 nM (Fab concentration/2)	100		
B1			0.31	100
B16	5.9 nM (Fab concentration/2)	100		
B17	7.3 nM (Fab concentration/2)	100		
B7	3.6 nM (Fab concentration/2)	100		
B2			0.28	100
B3	110 nM (Fab concentration/2)	100		
B9	4.7 nM (Fab concentration/2)	100		
B18			3.6	100
B19			6.7	100

Target: T2, human MHC class II DR protein …
Assay: not stated (Z. A. Nagy, unpublished)

Binder	Kd [nM]
B20	10
